Assay results: the Human Domainome abundance scans (Beltran et al. 2025)
± gives the uncertainty stated by the source.

B1: RNA-binding E3 ubiquitin-protein ligase MEX3C, residues 325 to 391; numbered along this chain, Q5U5Q3 (parent)
chain: GQTTVQVRVPYRVVGLVVGPKGATIKRIQQQTHTYIVTPSRDKEPVFEVTGMPENVDRAREEIEMHI

Variants of: B1
Experiment: abundance fitness (aPCA) (normalised: wild type 0, dead -1); higher = more abundant; growth selection in yeast, the domain comes from the species named
Conditions: Homo sapiens

Variant | abundance fitness
GQTTVQVRVPLRVVGLVVGPKGATIKRIQQQTHTYIVTPSRDKEPVFEVTGMPENVDRAREEIEMHI [Y11L] | -0.029 ± 0.057
GQTTVQVRVPRRVVGLVVGPKGATIKRIQQQTHTYIVTPSRDKEPVFEVTGMPENVDRAREEIEMHI [Y11R] | 0.262 ± 0.044
GQTTVQVRVPQRVVGLVVGPKGATIKRIQQQTHTYIVTPSRDKEPVFEVTGMPENVDRAREEIEMHI [Y11Q] | 0.233 ± 0.095
GQTTVQVRVPPRVVGLVVGPKGATIKRIQQQTHTYIVTPSRDKEPVFEVTGMPENVDRAREEIEMHI [Y11P] | 0.128 ± 0.12
GQTTVQVRVPSRVVGLVVGPKGATIKRIQQQTHTYIVTPSRDKEPVFEVTGMPENVDRAREEIEMHI [Y11S] | 0.236 ± 0.051
GQTTVQVRVPWRVVGLVVGPKGATIKRIQQQTHTYIVTPSRDKEPVFEVTGMPENVDRAREEIEMHI [Y11W] | 0.136 ± 0.067
GQTTVQVRVPYRMVGLVVGPKGATIKRIQQQTHTYIVTPSRDKEPVFEVTGMPENVDRAREEIEMHI [V13M] | 0.075 ± 0.11
GQTTVQVRVPYRLVGLVVGPKGATIKRIQQQTHTYIVTPSRDKEPVFEVTGMPENVDRAREEIEMHI [V13L] | 0.114 ± 0.054
GQTTVQVRVPYRWVGLVVGPKGATIKRIQQQTHTYIVTPSRDKEPVFEVTGMPENVDRAREEIEMHI [V13W] | -0.098 ± 0.074
GQTTVQVRVPYRPVGLVVGPKGATIKRIQQQTHTYIVTPSRDKEPVFEVTGMPENVDRAREEIEMHI [V13P] | -0.809 ± 0.24
GQTTVQVRVPYRHVGLVVGPKGATIKRIQQQTHTYIVTPSRDKEPVFEVTGMPENVDRAREEIEMHI [V13H] | -0.041 ± 0.15
GQTTVQVRVPYRDVGLVVGPKGATIKRIQQQTHTYIVTPSRDKEPVFEVTGMPENVDRAREEIEMHI [V13D] | 0.057 ± 0.086
GQTTVQVRVPYRCVGLVVGPKGATIKRIQQQTHTYIVTPSRDKEPVFEVTGMPENVDRAREEIEMHI [V13C] | -0.024 ± 0.11
GQTTVQVRVPYRQVGLVVGPKGATIKRIQQQTHTYIVTPSRDKEPVFEVTGMPENVDRAREEIEMHI [V13Q] | 0.169 ± 0.085
GQTTVQVRVPYRGVGLVVGPKGATIKRIQQQTHTYIVTPSRDKEPVFEVTGMPENVDRAREEIEMHI [V13G] | -0.153 ± 0.047
GQTTVQVRVPYRKVGLVVGPKGATIKRIQQQTHTYIVTPSRDKEPVFEVTGMPENVDRAREEIEMHI [V13K] | 0.216 ± 0.077
GQTTVQVRVPYRRVGLVVGPKGATIKRIQQQTHTYIVTPSRDKEPVFEVTGMPENVDRAREEIEMHI [V13R] | -0.25 ± 0.05
GQTTVQVRVPYRNVGLVVGPKGATIKRIQQQTHTYIVTPSRDKEPVFEVTGMPENVDRAREEIEMHI [V13N] | -0.207 ± 0.11
GQTTVQVRVPYRAVGLVVGPKGATIKRIQQQTHTYIVTPSRDKEPVFEVTGMPENVDRAREEIEMHI [V13A] | -0.029 ± 0.061
GQTTVQVRVPYRSVGLVVGPKGATIKRIQQQTHTYIVTPSRDKEPVFEVTGMPENVDRAREEIEMHI [V13S] | 0.127 ± 0.06

Variant | abundance fitness
GQTTVQVRVPYRFVGLVVGPKGATIKRIQQQTHTYIVTPSRDKEPVFEVTGMPENVDRAREEIEMHI [V13F] | 0.022 ± 0.1
GQTTVQVRVPYRYVGLVVGPKGATIKRIQQQTHTYIVTPSRDKEPVFEVTGMPENVDRAREEIEMHI [V13Y] | -0.073 ± 0.14
GQTTVQVRVPYRTVGLVVGPKGATIKRIQQQTHTYIVTPSRDKEPVFEVTGMPENVDRAREEIEMHI [V13T] | -0.006 ± 0.085
GQTTVQVRVPYRIVGLVVGPKGATIKRIQQQTHTYIVTPSRDKEPVFEVTGMPENVDRAREEIEMHI [V13I] | -0.366 ± 0.14
GQTTVQVRVPYREVGLVVGPKGATIKRIQQQTHTYIVTPSRDKEPVFEVTGMPENVDRAREEIEMHI [V13E] | -0.334 ± 0.087
GQTTVQVRVPYRVYGLVVGPKGATIKRIQQQTHTYIVTPSRDKEPVFEVTGMPENVDRAREEIEMHI [V14Y] | -0.51 ± 0.18
GQTTVQVRVPYRVCGLVVGPKGATIKRIQQQTHTYIVTPSRDKEPVFEVTGMPENVDRAREEIEMHI [V14C] | -0.89 ± 0.24
GQTTVQVRVPYRVQGLVVGPKGATIKRIQQQTHTYIVTPSRDKEPVFEVTGMPENVDRAREEIEMHI [V14Q] | -0.881 ± 0.19
GQTTVQVRVPYRVMGLVVGPKGATIKRIQQQTHTYIVTPSRDKEPVFEVTGMPENVDRAREEIEMHI [V14M] | -0.185 ± 0.068
GQTTVQVRVPYRVGGLVVGPKGATIKRIQQQTHTYIVTPSRDKEPVFEVTGMPENVDRAREEIEMHI [V14G] | -0.746 ± 0.095
GQTTVQVRVPYRVSGLVVGPKGATIKRIQQQTHTYIVTPSRDKEPVFEVTGMPENVDRAREEIEMHI [V14S] | -0.603 ± 0.1
GQTTVQVRVPYRVTGLVVGPKGATIKRIQQQTHTYIVTPSRDKEPVFEVTGMPENVDRAREEIEMHI [V14T] | -0.524 ± 0.13
GQTTVQVRVPYRVWGLVVGPKGATIKRIQQQTHTYIVTPSRDKEPVFEVTGMPENVDRAREEIEMHI [V14W] | -0.349 ± 0.082
GQTTVQVRVPYRVEGLVVGPKGATIKRIQQQTHTYIVTPSRDKEPVFEVTGMPENVDRAREEIEMHI [V14E] | -0.51 ± 0.095
GQTTVQVRVPYRVDGLVVGPKGATIKRIQQQTHTYIVTPSRDKEPVFEVTGMPENVDRAREEIEMHI [V14D] | -0.529 ± 0.12
GQTTVQVRVPYRVKGLVVGPKGATIKRIQQQTHTYIVTPSRDKEPVFEVTGMPENVDRAREEIEMHI [V14K] | -0.636 ± 0.14
GQTTVQVRVPYRVFGLVVGPKGATIKRIQQQTHTYIVTPSRDKEPVFEVTGMPENVDRAREEIEMHI [V14F] | -0.315 ± 0.098
GQTTVQVRVPYRVPGLVVGPKGATIKRIQQQTHTYIVTPSRDKEPVFEVTGMPENVDRAREEIEMHI [V14P] | -0.703 ± 0.16
GQTTVQVRVPYRVIGLVVGPKGATIKRIQQQTHTYIVTPSRDKEPVFEVTGMPENVDRAREEIEMHI [V14I] | 0.114 ± 0.17
GQTTVQVRVPYRVRGLVVGPKGATIKRIQQQTHTYIVTPSRDKEPVFEVTGMPENVDRAREEIEMHI [V14R] | -0.372 ± 0.052
